In PMC3052529:
“And” between values parts separate entries of the source, which are not always exact repeats. Equal values may be shown once. Read-outs that look alike come from different tables or passages of the source.

How the values were obtained:
[1] = biological target: HCV core106 (first N-terminal 106 residues of HCV core protein) (hepatitis C virus (strain not stated)); assay: cross-linking
[2] = biological target: Flag-core106 (hepatitis C virus (strain not stated)); assay: AlphaScreen or HTRF
[3] = biological target: Flag-core169 (hepatitis C virus H77 genotype 1a); assay: AlphaScreen or HTRF
[4] = biological target: Flag-core106 (hepatitis C virus (strain not stated)); assay: AlphaScreen or HTRF; remark: listed apart in the source
[5] = biological target: HCV core169 (first 169 residues of HCV core protein, domains D1+D2) (hepatitis C virus H77 genotype 1a); assay: cross-linking

Question: “HCV core106 (first N-terminal 106 residues of HCV core protein) (domain or fragment)” was tested. Which stoichiometry N [1] did it give?
Answer: The stoichiometry N was 2.

Question: And the IC50 [2]?
Answer: Its IC50 is 344 nM.

Question: What about the IC50 [3] of the same substance?
Answer: Its IC50 is 870 nM.

Question: And the IC50 [4]?
Answer: The IC50 was 220 nM.

Question: Which stoichiometry N [5] does the source give for “HCV core169 (first 169 residues of HCV core protein, domains D1+D2) (domain or fragment)” here?
Answer: The stoichiometry N was 2 and 3.
